From publication PMC6601351 (Structure (London, England : 1993), 2018)
Blank lines part the entries; values can stand above or below the molecule they belong to.

Tests used:
Test in all cases: ITC
PP1α_(7–330) (human) = PP1α_(7–330) (human) (UniProt P62136)
PP1γ_(7–300) = PP1γ_(7–300) (human, UniProt P36873 7-300)
PP1γ_(7–323) = PP1γ_(7–323) (human, UniProt P36873 7-323)
Sequence of PP1γ_(7–323) (P36873 7-323): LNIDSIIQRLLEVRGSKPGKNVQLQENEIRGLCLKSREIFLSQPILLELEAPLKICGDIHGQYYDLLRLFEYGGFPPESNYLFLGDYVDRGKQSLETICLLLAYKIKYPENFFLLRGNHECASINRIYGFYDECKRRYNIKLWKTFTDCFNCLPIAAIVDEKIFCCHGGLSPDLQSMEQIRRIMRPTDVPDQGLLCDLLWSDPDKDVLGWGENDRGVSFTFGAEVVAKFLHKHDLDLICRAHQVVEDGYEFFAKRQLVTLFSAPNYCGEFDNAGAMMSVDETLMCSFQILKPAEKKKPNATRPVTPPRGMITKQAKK

Sequence of PP1γ_(7–300) (P36873 7-300): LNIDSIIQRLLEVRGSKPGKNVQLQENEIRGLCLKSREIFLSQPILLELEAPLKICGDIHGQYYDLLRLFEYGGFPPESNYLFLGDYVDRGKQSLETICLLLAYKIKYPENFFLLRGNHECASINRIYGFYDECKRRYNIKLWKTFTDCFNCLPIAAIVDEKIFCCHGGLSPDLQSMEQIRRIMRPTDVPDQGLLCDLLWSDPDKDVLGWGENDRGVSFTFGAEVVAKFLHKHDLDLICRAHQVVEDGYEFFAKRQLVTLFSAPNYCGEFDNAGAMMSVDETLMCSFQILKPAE

Molecule: KNL1_(1–80)S24DS25D (from UniProt Q8NG31 1-80) (domain or fragment)
Kd (PP1α_(7–330) (human)): 267 nM
dH (PP1α_(7–330) (human)): -10.9 kcal/mol

Molecule: KNL1_(1–80)S60D (from UniProt Q8NG31 1-80) (domain or fragment)
Kd (PP1α_(7–330) (human)): 236 nM
dH (PP1α_(7–330) (human)): -30.7 kcal/mol

B1: KNL1_(23–80) (domain or fragment, human, UniProt Q8NG31 23-80, looked up)
chain: HSSILKPPRSPLQDLRGGNERVQESNALRNKKNSRRVSFADTIKVFQTESHMKIVRKS
Kd (PP1γ_(7–300)): 82 nM
dH (PP1γ_(7–300)): -28.3 kcal/mol
Kd (PP1γ_(7–323)): 52.4 nM
dH (PP1γ_(7–323)): -10 kcal/mol

B2: KNL1_(1–80) (domain or fragment, human, UniProt Q8NG31 1-80, looked up)
chain: MDGVSSEANEENDNIERPVRRRHSSILKPPRSPLQDLRGGNERVQESNALRNKKNSRRVSFADTIKVFQTESHMKIVRKS
Kd (PP1γ_(7–323)): 38.3 nM
dH (PP1γ_(7–323)): -8.6 kcal/mol

B3: KNL1_(1–150) (domain or fragment, human, UniProt Q8NG31 1-150, looked up)
chain: MDGVSSEANEENDNIERPVRRRHSSILKPPRSPLQDLRGGNERVQESNALRNKKNSRRVSFADTIKVFQTESHMKIVRKSEMEGCSAMVPSQLQLLPPGFKRFSCLSLPETETGENLLLIQNKKLEDNYCEITGMNTLLSAPIHTQMQQK
Kd (PP1γ_(7–323)): 55.2 nM
dH (PP1γ_(7–323)): -9.3 kcal/mol

Continued, values first:

Kd (PP1α_(7–330) (human)): 46.4 nM
dH (PP1α_(7–330) (human)): -22.6 kcal/mol
Molecule: KNL1_(1–80) (from UniProt Q8NG31 1-80) (domain or fragment)

Kd (PP1α_(7–330) (human)): 93.5 nM
dH (PP1α_(7–330) (human)): -21.5 kcal/mol
Molecule: KNL1_(1–80)S24AS25A (from UniProt Q8NG31 1-80) (domain or fragment)

Kd (PP1α_(7–330) (human)): 14.7 nM
dH (PP1α_(7–330) (human)): -12.4 kcal/mol
Molecule: KNL1_(1–80)S56D (from UniProt Q8NG31 1-80) (domain or fragment)

Kd (PP1α_(7–330) (human)): 154 nM
dH (PP1α_(7–330) (human)): -20.1 kcal/mol
Molecule: KNL1_(1–80)S60A (from UniProt Q8NG31 1-80) (domain or fragment)

Kd (PP1α_(7–330) (human)): 228 nM
dH (PP1α_(7–330) (human)): -21.5 kcal/mol
Molecule: KNL1_(1–80)SILK/AAAA (SILK_(dead)) (from UniProt Q8NG31 1-80) (domain or fragment)

Kd (PP1α_(7–330) (human)): 89 nM
dH (PP1α_(7–330) (human)): -13.7 kcal/mol
Molecule: KNL1_(23–80) (from UniProt Q8NG31 23-80) (domain or fragment)
